Earlier results as cited in patent EP0997151B1, “Method for administering insulinotropic peptides” (priority 1998, dated 2006).

Conditions: pulmonary delivery; calculated, background

Substance: parathyroid hormone (1-34)
- Absorption values for proteins delivered through the lungs: fifteen
